Laboratory results reported in the nanobody polyreactivity screen of Harvey et al. (2022).

Experiment: yeast display, Sf9 membrane polyspecificity reagent, FACS + sequencing; frameworks hold sequencing errors
How it was run: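 Galactose induction of a Saccharomyces cerevisiae BJ5465 synthetic nanobody display library ran 36–48 hours. The cells were then stained for 1 hour at 4 °C with 10% biotinylated, detergent-solubilized Sf9 membrane reagent, pulled down on streptavidin microbeads and FACS-sorted into low and high (top ~1%) gates on expression and reagent-binding fluorescence. Labels for polyreactivity follow the gate of origin.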

Sequence	polyreactivity (PSR sort gate)
QVQLVESGGGLVQAGGSLRLSCAASGRIFDVYAKGWYRQAPGKERELFAAISKSDGRTYYADSVKGRFTISRDNAKNTVYLQMNSLKPEDTAVYYCNVRAYGARAGTKMYYWGQGTQVNVSS	low polyreactivity
QVQLVDSGGGLVQAGGSLRLSCAASGSTYGLYAMGWYRQATGKERELVAAITWRASSTYYADSVKGRFTISRDNAKNTVFLQMNSLKPEDTAVYYCAATWYSRFSRGDYDYWGQGTQVTVSS	high polyreactivity
QVQLVESGGGLVQAGGSLRLSCAASGRIFVIYAMGWYRQAPGTERELVAAITARGSNTYYADSVKGRFTISRDNAKNTVYLQMNSLKPEDTAVYYCNAEARSYRYPYNYWGQGTQVTVSS	high polyreactivity
QVQLVESGGGLVQAGGSLRLSCASSGRIFAHNAMGWYSQAPGKERELVAAINSGGSTDYADSVKGRFTISRDNAKNTVYLQMNSLKPEDTAVYYCAADDPGSFPDDSWGQGTQGTVSS	low polyreactivity
QVQLVESGGGLVQAGGSLRLSCAASGFTFYTNAMGWYRQAPGKERELVAAISKRGASTYYADSVKGRFTISRDNAKNTFYLQMYSLKPEDTAVYYCAASSRTHGSYYYWGQGTQVTVSS	high polyreactivity
QVQLVESGGGLVKAGGSLRLSCAASGINFYRYAMGWYRQAPGKERELVAAITWSGVSTSYADSVKGRFTISRDNAKKTVYLQMNSLKPEDTAVYYCNTDPGTLYGDMDSWGQGTQVTVSS	low polyreactivity
QVQLVESGGGLVQAGGSLRLSCAASGSTFAGNAMGWYRQAPGKERELVAAISGSGGITYYADSVKGRFTISRDNAKNTVYLQMNSLKPEDTAVYYCNAYYWFSRYGYWGQGTQVTVSS	high polyreactivity
QVQLVESGGGLVQAGGSLRLSCAASGRTFFWYAMGWYRQAPGKERELVAAISSSTRTKYADSVKGRFTISRDNAKNTVYLQMNSLKPEDTAVYYCNAKGWVWPFPSYYPYDSWGQGTQVTVSS	high polyreactivity
QVQLVESGGGIVQAGGSLRLSCAASGFTFPVYAMGWYRQAPGKEREFVAAITYIGGSTYADSVKGRFTISRDNAKNTVYLQMNSLKPEDTAVYYCAADIITEYWADYLGYLEYDYWGQGTQVTVSS	low polyreactivity
QVQLVESGGGLVQAGGSLRLSCAASGSTFYPYAMGWYRQATGKERELVAAISYSGGSKYYADSVKGRFTISRDNAKNTVYLQMNSLKPEDTAVYYCAAYYRVYGASYDYWGQVTQVTVSS	high polyreactivity
QVQLVESGGGLVQAGGSLRLSCAASGSTLVSNAMGWYIQAPGKEREFVAAINSSGSRTYYADSVKGRFTISRDNANNTVYLQMNSLKPEDTAVYYCAAGYWNDFDWGQVTQVTVSS	low polyreactivity
QVQLVESGGGLVQAGGSLRLSCAASGFIFTYNAMGWYRQAPGKERELVASIRSTGGSTYYADSVKGRFTISRDNAKNTVYLQMNSLKPEDTAVYYCAARARGTNMYYWGQGTQVTVSS	high polyreactivity
QDQLVESGGGLVQAGGSLRLSCAASRITIYRYVMGWYRQAPGKERELVAAITSAGSTNYADSVKGRFTISRDHAKTTVYLQMNSLKPEDTAVYYCNADYKGYVRPYVRIRYGYWGQGTQVTVSS	low polyreactivity
QGQLVESAGGLVQAGGSLRLSCAASGSTFDYYTIGWYRQAPGKERELVAAISSSGGSTYYADSVKGRFTISRANAKNTVYLQMNSLKPVDTAVYYCAAKWDWGYGRGFQYGFNYWGQGTQVTVSS	low polyreactivity
QVQLVESVGGLDQAGGSLRLSCAASGRIFRQNAMGWYRQAPGKERELVAAISRSGGSTYYADSVKGRFTISRDNAKNTVYLQMNSLKPEDTAVYYCNRDYQSQRTYPRRYDYCGQGTQVTVSS	low polyreactivity
QVQLVESGGGLVKAGGSLRLSCADSGSIFWYYTMGRYRQAPGKEREFVAAISWSGGGSTYYADSVKGRFTISRENAKYTVYLQMNSLKPEDTAVYYCNGDWTSYGFVTRLDYWGHGTQVTVSS	low polyreactivity
QVQLVESGGGLVQAGGSLRLSCAASGRIFYRNGMGWYRQAPGKERELVAAISYSGGRTYYADSVKGRFTISRYNAKNTVYLQMNSLKPEDTAVYYCAAQWFEDFLYPWLEYDYWGQGTQVTVSS	high polyreactivity
QVQLVESGGGLVQAGCSLRLSCAASGSFFSSNSMGWYRQAPGTERELVAAISRSGGNTYYADSVKGRFTISRDNAKNTVYLQMNSLKPEDTAVYYCAVVGRHGQKYDWGQGNQVTVSS	high polyreactivity
QVQLVESGGGLVQAGGSLRLSCAASGITFLHYAMGWYRQAPGQERELVAAIDYSGGSTYYADSVKGRFTISRDNAKNTVYLEMKSLKPEDTAVYYCNARVPRYNGGSTMEYWGQGTQVTVSS	high polyreactivity
QVQLVESGGGLVQAGCSLLLICAASGRTFCFNTMGWYRQAPGKERELVASISGSGGRTYFADSVKGRFTISRDNEKNTVYFQMNSLKPEDTAVYYCAARRYSRDYDYWGQGTQVTVSS	high polyreactivity
QVQVVESGGGLVQAGGSLRLSCAASGSTFKNYAMGWYRQAPGKERELVAAIHGRGGSTYYADSVKGRFTISRDNAKNTVYLQMNSLKPEDTAVYYCAASRVHSYNPGYPRYYYWGQGTQVNVSS	high polyreactivity
QVQLVESGGGLVQAGGSLRLSCAASGSTFYQSVMGWYRQAPGKERELVADITNGGSTYYADSVKGRFTISRDNAKNTVYLQMNSLKPEDTAVYYCAADGGYYWYTYWYGGLYYWGQGTQVTVSS	high polyreactivity

Sequence	polyreactivity (PSR sort gate)
QGQLVESGGGLVQAGGSLRLSCAASGRNFRINDMGWYRQAPGKERELVAAITWSGGSTYYADSVKGRCPISRDNAKNTVYLQMHSLKPEDTAVYYCAADQAYFWGYYYWGQGTQVTVSS	low polyreactivity
QVQLVESGGGLVQAGGSLRLSCAASGGIFPVYAMGWSRQAPGKERELVATITSDGDTNYADSVKGRFTISRDNAKNTVYLQMNSLKPEDTAVYYCNKDLDYIIVQPHSPELEYWGQGTQVTVSS	low polyreactivity
QVQLVESGGGLLQAGGSLRLSCAASGFTFTTYAMGWYRQAPGKERELVAAITRRGGSTYYADSVKGRFTISRDNAKNTVYFQMNSLKPEDTAVYYCAAGGGWGLDYWGQGTQVTVSW	high polyreactivity
QVQLVESGGGLVQAGGSLRLSCAASGRIFLSYAMGWYRQAPGKERELVAGITWNGGSTYYADSVKGRFTISRDNAKNTVYLQMNSLKPEDTAVYYCAATRFSYVFPYRYDYWGQGTQVTVSS	low polyreactivity
QVQLVESGGGLVQAGGSLRLSCAASGSTFDHYTMGWYRPAPGKERELVAAINRIGDSTYYADSVKGRFTISRDNAKNTVYLQMNSLKPEDTAVYYCAARHVPRFNKYGYWGQGTQVTVSS	high polyreactivity
QVQLVDSGGGLVQAGGSLRLSCAASGSTFKYYGMGWYRQAPGKERELVASISSSGTRTYYADSVKGRFTISRDNAKNTVYLQMNSLKAEDTAVYYCAADSYATYFLYDSWGQGTQVTVSS	low polyreactivity
QFQLVESGGGLVQAGVSLRLSCAASGSIIKYYAMGWYRQAPGKERELVATINWNGGSTYYADSVKGRFTISRDNAKNTVYLQMNSLKPEDTAVYYCAAGYRGSYYHSHYEYLGQGTQVTVSS	high polyreactivity
QVQLVESVGGLVQAGASLRLSCAASGFTIDRYAMGWYIQAPAKERELVAAISGSGGRTYYADSVKGRFTISRDNAKNTVYLQMNSLKPEVTAVYYCAAVYLVTRGARYDYCGQGTQVTVSS	high polyreactivity
QVQLVESGGGLVQAGGSLRLSCAATGRTFSVYTMGWYRQAPGKERELVASISRSGGRTYYADSVKGRFTISRDNAKNTVYLQMNSLKPEDTAVYYCAARWYSASALKYYYWGQGTQVTVSS	high polyreactivity
QVQLQESGGGLVQAGGSLRLSCAASGPISGPHVMGWYRQAPGKEREFVAAINVGANTYYADNVKGRFTISRDNATNTVYLQMNSLKPEDTAVYYCAAVYYGDIGHEYWGQGTQVTVSC	low polyreactivity
QVQLVESGGGLVQAGGSLRLSCAASGSTITNYAMGWYRQAPGKERELVAAIRYSGGRTYYADSVKGRFTISRDNANNPGYLQMNSLKPEDTAVYYCAADRASYFTYAYGYWGQGTQVTVSS	high polyreactivity
QVQLVESGGGLVQAGGSLRLSCAASGSTIYAMGWYRQAPGKERELVAGINRSGTRTYYADSVKGRFTISRDNAKNTVYLQMNSLKPEDTAVYYCAALVYRPTYGYIFDYWGQGTQVTVSS	high polyreactivity
QVQLVESGGGLVQAGGSLRLSCAASGSIFRYYAMGWYIQAPGKERELVAGITGSTGRTYYADSVKGRFTISRDNAKNTVYLQMNSLKPEDTAVYYCAARSRYYEYDYWGQGTQVTVSS	low polyreactivity
QVQLVESGGGLVQAGGSLRLSCAASGLTFGDYTMGWYRQAPGKERELVAAITGSGASTYYADSVKGRFTISRDNAQNTGYLQMNSLKPEDTAVYYCDAERTPSYRAYDYWGQGTQVTVSS	low polyreactivity
QVQLVESGGGLVQAGGSLRLSCAASGSTFSFNAMGWYRQAPGKERELVAAISRSGGRTYYADSVKGRFTISRDNAKNTVYLQMNSLKPEDTAVYYCNKVWFQRSVQPVEYVYWGQGTQVTVSS	high polyreactivity
QVQLVESGGGLDQAGGSLPLRCAATGSIFHDYALGWYSQAPGKERELVAVISTSGGSTYYADSVKGRFTISRDNAKNTVYLQMNSLKPEDTAVYYCNAELSFWALGYDYWGQGTQVTVSS	low polyreactivity
QVQLVESGGGLVQAGGRLRLSCAASGRIFYWNVMGWYRPAPGKERELVAAISSSGASTSYADSVKGRFTISRDNAKNTVYLQMNSLKPEDTAVYYCAARTRRNYRQYNYWGQGTQVTVSS	high polyreactivity
QVQLVESGGGLVQAGGSLRLSCAASGSTFVQYAMGWYRQAPGKERELVAAITSGGRTNYADSVKGRFTISRDNAKNTVYLQMNSLKPEDTAVYYCAARYGSNSPRGYEYYYWGQGTQVTVSS	low polyreactivity
QVQLVESGGGLVQAGGSLRLSCAASGRTFQIYAMGWYRQAPGKERELVAAISRRGGSTYYADSVKGRFTISRDNAKNTVYLQMNSLKPEDTAVYYCNVVHWRGEYSYAGYDYWGQGTQVTVSS	high polyreactivity
QVQLVESGGGLVQAGGSLRLSCAASGFIYGWYAMGWYRQAPGKERELVAAINWSGTSTYYADSVKGRFTISRDNAKNTVYLQMNSLKPEDTAVYYCAAYFQKLPTTGYDYWGQGTQVTVSS	low polyreactivity
QVQLVESGGGLVQAGGSLRLSCAASGFTLRTYAMGWYRQAPGKERELVAAITVSGGTYYADSVKGRFTISRDNAKYTVYLQMNSLKPEDTAVYYCTAKRFGTGFDYWGQGTQVTVSS	low polyreactivity
